Data from US20030082638A1, “Methods for screening osteogenic compounds” (priority 2001, published 2003).

How the values were obtained:
JNK [1] = assay: Western blot of JNK phosphorylation in murine osteoclast precursors; assay type: cell-based; conditions: after GST-RANKL stimulation
Protocol: (§1) GST-RANKL rapidly activates MAP kinases in murine osteoclast precursors. Wild type C57BL/6 mice were purchased from Harlan Industries (Indianapolis, Ind.). For the isolation of osteoclast precursors, bone marrow macrophages (BMMs) were isolated from whole bone marrow of four to six week old mice and incubated in tissue culture dishes at 37° C. in 5% CO2. After 24 hours in culture, the non-adherent cells were collected and layered on a Ficoll Hypaque gradient and the cells at the gradient interface were collected. Cells were replated at 65,000/cm^2 in α-minimal essential medium, supplemented with 10% heat inactivated fetal bovine serum, at 37° C. in 5% CO2 in the presence of recombinant mouse M-CSF (10 ng.ml). Cells were treated with GST-RANKL on day 4 or 5. In the experiments addressing the activation of Akt, the cells were cultured in serum and M-CSF free medium for 24 hours prior to GST-RANKL stimulation.
(§2) Immunoblotting (Western blotting) of osteoclast precursors was performed according to the following instructions. Cytokine-treated or control monolayers of BMMs were washed twice with ice-cold PBS. Cells were lysed in the buffer containing 20 mM Tris (pH 7.5),150 mM NaCl, 1 mM EDTA, 1 mM EGTA, 1% Triton X-100, 2.5 mM sodium pyrophoshate, 1 mM β-glycerophosphate, 1 mM Na3PO4, 1 mM NaF, and 1×protease inhibitor cocktail. […]

Akt [2] = assay: Western blot of Akt phosphorylation in murine osteoblasts; assay type: cell-based
Protocol: (§3) GST-RANKL-induced activation of MAP kinases is prolonged in murine osteoblasts. Primary osteoblasts were isolated from neonatal murine calvaria by sequential enzymatic digestion. Briefly, calvaria were minced and incubated at room temperature for 20 minutes with gentle shaking in an enzymatic solution containing 0.1% collagenase, 0.05% trypsin, and 4 mM NA2EDTA in calcium- and magnesium-free phosphate buffered saline (PBS). This procedure was repeated to yield a total of six digests. The cells isolated from the last four to six digests were cultured in MEM containing 15% FBS, 50 μM ascorbic acid, and 10 mM β-glycerophosphate. Cells were maintained at 37° C. in a humidified atmosphere containing 6% C02, with daily replenishment of media and cytokines.
(§4) Following treatment with GST-RANKL at the indicated times and dosages, cells were lysed in RIPA buffer containing 10 mM Tris-HCl pH 7.4, 150 mM NaCl, 1% Nonidet P-40, 0.2% sodium deoxycholate, and 1 mM EDTA, with 1 mM Na3PO4, 1 mM NaF, and 1×protease inhibitor cocktail added immediately prior to use. Protein concentration was quantitated and standardized by Micro BCA Protein Assay (Pierce). […] Levels of total and phosphorylated ERK, JNK, p38, Akt, and IkBα were determined using primary and secondary antibodies according to the manufacturer's established protocols, with conventional chemiluminiscent detection. […]

IkBα = assay: Western blot of IkBα phosphorylation in murine osteoblasts; assay type: cell-based
Protocol: as §3, §4

Akt [3] = assay: Western blot of Akt phosphorylation in murine osteoclast precursors; assay type: cell-based
Protocol: as §1, §2

Mice = assay: In vivo stimulation of bone formation in mice, intramedullary femur injection, DEXA; design: species or system mouse; conditions: 100 micrograms intramedullary once a day for nine days; versus GST control; day 9
Protocol: In vivo stimulation of bone formation in mice results in 24% increase. Mice were anesthetized with a Ketamine/Xylazine cocktail (10 mg/kg ketamine and 10 mg/kg xylazine IP) and placed in left lateral recumbancy. The major trochanter and lateral femoral condyle of the right femur were identified and the intramedullary injection site was equidistant between these landmarks. Injections of 100 micrograms GST (control) or 100 micrograms GST-RANKL were made once a day for nine days with 29 gauge needles on tuberculin syringes.
On day 9 the mice were re-anesthetized with Ketamine/Xylazine cocktail (10 mg/kg ketamine and 10 mg/kg xylazine IP) and dual energy x-ray absorptiometry (DEXA, Piximus) analysis was done on each animal. Plain radiographs were taken immediately following DEXA analysis (Faxitron, KV 0.15, time=20 sec). Animals were sacrificed by CO2 asphyxiation and both femurs harvested for histological analysis. The femurs were fixed in 10% buffered formalin for 48 hours and decalcified for 1 week. The results, showing a 24% increase in bone density of the femur of GST-RANKL treated mice versus the control, are shown in FIG. 10.

ERK1/2 = assay: Western blot of ERK1/2 activation in murine osteoblast precursors; assay type: cell-based
Protocol: as §3
(§5) Following treatment with GST-RANKL at the indicated times and dosages, cells were lysed in RIPA buffer containing 10 mM Tris-HCl pH 7.4, 150 mM NaCl, 1% Nonidet P-40, 0.2% sodium deoxycholate, and 1 mM EDTA, with 1 mM Na3PO4, 1 mM NaF, and 1×protease inhibitor cocktail added immediately prior to use. Protein concentration was quantitated and standardized by Micro BCA Protein Assay (Pierce). Lysates were denatured by heat in Laemmli buffer, resolved by SDS-PAGE, and transferred onto nitrocellulose. Levels of total and phosphorylated ERK, JNK, p38, Akt, and IkBα were determined using primary and secondary antibodies according to the manufacturer's established protocols, with conventional chemiluminiscent detection. Membranes were stripped between hybridizations in PBS containing […] β-mercaptoethanol and 2% SDS.
GST-RANKL-induced ERk1/2 activation is prolonged in murine osteoblast precursors. Osteoblast precursors were isolated and maintained according to the procedures set forth in Example 5. The immunoblotting was performed in the same manner as immunoblotting in Example 3.

ERK [4] = assay: Western blot of ERK phosphorylation in murine osteoclast precursors; assay type: cell-based
Protocol: as §1
(§6) Immunoblotting (Western blotting) of osteoclast precursors was performed according to the following instructions. Cytokine-treated or control monolayers of BMMs were washed twice with ice-cold PBS. Cells were lysed in the buffer containing 20 mM Tris (pH 7.5),150 mM NaCl, 1 mM EDTA, 1 mM EGTA, 1% Triton X-100, 2.5 mM sodium pyrophoshate, 1 mM β-glycerophosphate, 1 mM Na3PO4, 1 mM NaF, and 1×protease inhibitor cocktail. Fifty μg of cell lysates were boiled in the presence of SDS sample buffer (0.5 M Tris-HCl, pH 6.8, 10% w/v SDS, 10% glycerol, 0.05% w/v bromphenol blue) for 5 minutes and separated on SDS-PAGE, using 8% gels. Proteins were transferred to nitrocellulose membranes using a semi-dry blotter (Bio-Rad, Richmond, Calif.) and incubated in blocking solution (5% non-fat dry milk in tris-buffered saline containing 0.1% Tween 20) for 1 hour to reduce nonspecific binding. Membranes were then exposed to primary antibodies overnight at 4° C., washed three times, and incubated with secondary goat anti-mouse or rabbit IgG horseradish peroxidase-conjugated antibody for 1 hour. […]

c-Fos = assay: Western blot of c-Fos activation following GST-RANKL treatment of cells; assay type: cell-based; conditions: osteoblasts and osteoblast precursor cells; FIG. 9, 0-120 minutes
Protocol: Time points at which activation was measured were 0, 30, 60 and 120 minutes following exposure of cells to GST-RANKL. B-actin was used as a control.

p38 [5] = assay: Western blot of p38 phosphorylation in murine osteoclast precursors; assay type: cell-based
Protocol: as §1, §6

Mice, C3H/HeN = assay: In vivo stimulation of bone formation in mice, subcutaneous administration; design: species or system mouse; conditions: 100 micrograms subcutaneously once a day for nine days, vs GST control
Protocol: In vivo stimulation of bone formation in mice. Mice, C3H/HeN (Harlan, Indianapolis, Ind.) were administered 100 micrograms GST (control) or 100 micrograms GST-RANKL as obtained in Example 1, subcutaneously, once a day for nine days. […] Upper panels illustrate metaphyseal bone, which is shown at higher magnification in lower panels. […] Dual-energy X-ray absorptiometry (DEXA) analysis of GST or GST-RANKL administered mice was also conducted using standard procedures.

[6] = test system: Primary calvarial osteoblasts; assay: Alkaline phosphatase (AP) activity in osteoblasts following GST-RANKL exposure; assay type: cell-based; conditions: 50 ng/ml
Protocol: AP activity following RANKL exposure in osteoblasts. Primary calvarial osteoblasts were cultured in MEM containing 15% FBS, 50 μM ascorbic acid, and 10 mM β-glycerophosphate. Cells were maintained at 37° C., with daily replenishment of media and cytokines. Osteoblast alkaline phosphatase (AP) activity, a direct measure of osteoblast differentiation and function, was quantitated by addition of a calorimetric substrate, 5.5 mM p-nitrophenyl phosphate. The cells were then exposed to GST-RANKL, administered in different regimens. Pulsatile exposure to 50 ng/ml GST-RANKL was provided as 1, 3, 6, 8, or 24 hours of total exposure per 48-hour treatment window. After 4 such 48-hour treatments, AP activity was quantitated (±S.D.) and normalized to total protein levels.

ERK [7] = assay: Western blot of ERK phosphorylation in murine osteoblasts; assay type: cell-based
Protocol: as §3, §5

p38 [8] = assay: Western blot of p38 phosphorylation in murine osteoblasts; assay type: cell-based
Protocol: as §3, §4

[9] = test system: Neo-natal mouse calvariae; assay: Ex vivo stimulation of bone formation in whole calvarial organ culture; assay type: cell-based
Protocol: One commonly used assay is a neonatal mouse calvaria assay. Briefly, four days after birth, the front and parietal bones of ICR Swiss white mouse pups are removed by microdissection and split along the sagittal suture. The bones are then incubated in a specified medium, wherein the medium contains either test or control compounds. Following the incubation, the bones are removed from the media, and fixed in 10% buffered formalin for 24-48 hours, decalcified in 14% EDTA for 1 week, processed through graded alcohols, and embedded in paraffin wax. Three micron sections of the calvaria are prepared and assessed using histomorphometric analysis of bone formation or bone resorption. Bone changes are measured on sections cut 200 microns apart. […]
Ex vivo stimulation of bone formation in whole calvarial organ culture. […] Purified GST-RANKL was then assayed for endotoxin contamination by limulus amoebocyte lysate assay, and quantitated for bioactivity by an in vitro osteoclastogenesis readout.
Test compositions were administered for-a period of 12 hours only at the initiation of the culture (1×) or once at initiation and once three days later, again for a duration of 12 hours (2×). After seven days, calvarial thickness was determined histomorphometrically and compared among the various control and experimental groups to assess bone formation. […]

JNK [10] = assay: Western blot of JNK phosphorylation in murine osteoblasts; assay type: cell-based
Protocol: as §3, §4

[11] = after RANK/GST-RANKL interaction

exposure window giving the maximum anabolic effect (AP activity) ([6]; 1, 3, 6, 8 or 24 hours exposure per 48-hour window, 4 treatments): 8 h
AP activity ([6]; administered in an intermittent fashion): increase
B1: GST-RANKL: fusion protein of glutathione S-transferase (GST) and murine RANKL residues 158-316, expressed in Escherichia coli, affinity purified (protein)
chain: KPEAQPFAHLTINAASIPSGSHKVTLSSWYHDRGWAKISNMTLSNGKLRVNQDGFYYLYANICFRHHETSGSVPTDYLQLMVYVVKTSIKIPSSHNLMKGGSTKNWSGNSEFHFYSINVGGFFKLRAGEEISIQVSNPSLLDPDQDATYFGAFKVQDID
modifications: left off: a dimerising Fc or GST
time at which JNK was phosphorylated (JNK [1]): 15 min
time by which phosphorylated JNK was undetectable (JNK [1]): ≤ 30 min
Akt activation at the time of GST-RANKL stimulation (Akt [2]): detectable
duration for which Akt activation could be detected (Akt [2]; after stimulation): at least 60 minutes
time until which IkBα phosphorylation increased (end of the assay) (IkBα): 60 min
time at which IkBα phosphorylation was detected (IkBα; after stimulation): 10 min
Akt phosphorylation at the time of GST-RANKL stimulation (Akt [3]; 0 minutes): detectable phosphorylation
time of peak Akt activation (Akt [3]; after GST-RANKL stimulation): 15 min
increase in bone density of the femur (DEXA) (Mice): 24%
time of peak kinase activation as stated in the description (ERK1/2; osteoblast precursor cells, GST-RANKL stimulation): 5 to 10 min
time up to which ERK activation increased (length of the assay) (ERK1/2; osteoblast precursors): 60 min
time at which ERK activation was first detected (ERK1/2; osteoblast precursors, after GST-RANKL stimulation): 10 min
time at which ERK phosphorylation was detected (ERK [4]; after GST-RANKL stimulation): 5 min
time of peak ERK phosphorylation (ERK [4]; [11]): 10 min
time at which ERK phosphorylation was undetectable (ERK [4]; after the interaction): 30 min
activation of c-Fos (c-Fos): prolonged activation
time at which p38 phosphorylation was detected (p38 [5]; after GST-RANKL stimulation): 5 min
time of peak p38 phosphorylation (p38 [5]; [11]): 10 min
time at which p38 phosphorylation was undetectable (p38 [5]; after the interaction): 30 min
bone mineral density (DEXA) (Mice, C3H/HeN; tibial metaphyses): significant increase
bone mass (histological examination of tibia) (Mice, C3H/HeN): marked increase
cortical thickness (Mice, C3H/HeN): massive increase
numbers of activated osteoblasts (histological examination of tibia) (Mice, C3H/HeN): net increase
time at which ERK activation could still be detected (ERK [7]; after GST-RANKL stimulation): 60 min
time by which both ERKs were activated (ERK [7]; after GST-RANKL stimulation): ≤ 5 min
time of peak ERK activation (ERK [7]; [11]): 10 min
p38 activation at the time of GST-RANKL stimulation (p38 [8]): detectable
duration for which p38 activation could be detected (p38 [8]; after stimulation): at least 60 minutes
calvarial thickness at the highest dose tested ([9]; 100 ng/ml, after seven days): doubled
calvarial thickness ([9]; administered 1× or 2× for 12 hours, histomorphometry after seven days): dose-dependent increase
JNK activation at the time of GST-RANKL stimulation (JNK [10]): detectable
duration for which JNK activation could be detected (JNK [10]; after stimulation): at least 60 minutes
